The source of these data is US20240158497A1 (published 2024).

Assay [1] addresses T1, human LEPR extracellular domain expressed with a C-terminal myc-myc-hexahistidine tag (human, UniProt P48357 22-839).
T1 construct: Monomeric reagent; the whole entry is the construct with its tag; also called hLEPR-MMH; hLEPR.mmh
Description: SPR Biacore 4000, bsAb captured by anti-human Fc, 25 C. A digest of the protocol:
(§1)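 Anti-hFc-captured bispecific antibodies received 3-fold serial dilutions of LEPR or GP130 (100 nM–3.7 nM) in HBS-ET, pH 7.4, injected for 4 min with 10 min dissociation at 25 °C or 37 °C. ka and kd came from a 1:1 binding model with mass transport limitation, and KD and t½ were calculated from these rate constants.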
A general note: SPR reads the build-up and loss of mass on a sensor chip optically.

For assay [2], the target named is T2, Macaca Fascicularis LEPR extracellular domain expressed with a C-terminal myc-myc-hexahistidine tag (Macaca fascicularis, UniProt Q9MYL0 22-837 (rhesus entry)).
T2 construct: Monomeric reagent; the whole entry is the construct with its tag; also called mfLEPR-MMH
The assay is described as above. A digest of the protocol: as §1

Assay [3] addresses T1, human LEPR extracellular domain …. Description: SPR Biacore 4000, bsAb captured by anti-human Fc, 37 C. Put shortly: as §1
Assay [4] deals with T2, Macaca Fascicularis LEPR extracellular …. The description is as above. A digest of the protocol:
as §1

Assay [5] deals with T3, human GP130 extracellular domain expressed with a C-terminal myc-myc-hexahistidine tag (human, UniProt P40189 23-619).
T3 construct: also called hGP130-MMH; hGP130-mmH
As to the kind of experiment: SPR, bsAb captured by anti-hFc, 25C. The protocol: (§2) Equilibrium dissociation constants (KD values) for LEPR and GP130 binding to purified anti-LEPR/GP130 bispecific antibodies were determined using a real-time surface plasmon resonance biosensor using a Biacore 4000 instrument. All binding studies were performed in 10 mM HEPES, 150 mM NaCl, 3 mM EDTA, and 0.05% v/v Surfactant Tween-20, pH 7.4 (HBS-ET) running buffer at 25° C. and 37° C. The Biacore sensor surface was first derivatized by amine coupling with a monoclonal mouse anti-human Fc antibody (GE, #BR-1008-39) to capture anti-LEPR/GP130 bispecific antibodies. […] Different concentrations of LEPR or GP130 reagents were first prepared in HBS-ET running buffer (100 nM-3.7 nM; 3-fold serial dilution) and were injected over anti-human Fc captured anti-LEPR/GP130 bispecific antibody surface for 4 minutes at a flow rate of 30 μL/minute, while the dissociation of bispecific antibody bound LEPR or GP130 reagent was monitored for 10 minutes in HBS-ET running buffer. Kinetic association (kₐ) and dissociation (kd) rate constants were determined by fitting the real-time binding sensorgrams to a 1:1 binding model with mass transport limitation using Scrubber 2.0c curve-fitting software. Binding dissociation equilibrium constants (KD) and dissociative half-lives (t ½) were calculated from the kinetic rate constants as: […]

The target in assay [6] is T4, Macaca Fascicularis GP130 extracellular domain expressed with a C-terminal myc-myc-hexahistidine tag (Macaca fascicularis, UniProt P40189 23-619 (human entry)).
T4 construct: also called mfGP130-MMH; mfGP130-mmH
T4 chain: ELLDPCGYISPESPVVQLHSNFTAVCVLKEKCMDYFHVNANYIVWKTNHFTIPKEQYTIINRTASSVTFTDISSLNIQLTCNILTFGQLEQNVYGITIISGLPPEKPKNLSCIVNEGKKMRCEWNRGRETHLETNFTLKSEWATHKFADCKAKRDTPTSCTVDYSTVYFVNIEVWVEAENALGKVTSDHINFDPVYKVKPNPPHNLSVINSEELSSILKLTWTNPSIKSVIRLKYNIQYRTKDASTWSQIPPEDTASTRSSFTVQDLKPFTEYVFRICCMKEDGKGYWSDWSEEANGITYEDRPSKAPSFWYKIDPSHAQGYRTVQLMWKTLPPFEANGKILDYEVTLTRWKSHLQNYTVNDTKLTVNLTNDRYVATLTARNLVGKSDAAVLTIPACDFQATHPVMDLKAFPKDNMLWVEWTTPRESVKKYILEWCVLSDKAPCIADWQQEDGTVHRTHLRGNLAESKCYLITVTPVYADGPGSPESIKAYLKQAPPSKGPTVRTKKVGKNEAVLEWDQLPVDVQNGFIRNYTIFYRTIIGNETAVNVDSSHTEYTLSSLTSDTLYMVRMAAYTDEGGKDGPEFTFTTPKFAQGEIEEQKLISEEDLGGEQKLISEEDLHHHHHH
As to the kind of experiment: SPR, bsAb captured by anti-hFc, 25C. The method, then: as §2

Assay [7] has as its target T3, human GP130 extracellular domain …. As to the kind of experiment: SPR, bsAb captured by anti-hFc, 37C. The method, then:
as §2

In assay [8] the target is T4, Macaca Fascicularis GP130 extracellular …. Description: SPR, bsAb captured by anti-hFc, 37C. The protocol:
as §2

B1: bsAb21236D (bispecific antibody, V domains shown)
VH 1: QVQLQESGPGLVKPSQTLSLTCTVSGGSISSGGDYWSWIRQLPGKGLEWIGYIYYSGSAYYNPSLKSRGTISIDTSKNQFSLKLTSVTAADTAVYFCVKLRFLEWFLGGWFGPWGQGTLVTVSS
VH 2: QVQLVESGGGLVKPGGSLRLSCAASGFTFSDYYMTWIRQTPGKGLDWVSYISSSGTNKYNADSVKGRFTISRDNAKNSLYLQMNSLRAEDTAVYYCVRDPPWGMDVWGQGTTVTVSS
VL: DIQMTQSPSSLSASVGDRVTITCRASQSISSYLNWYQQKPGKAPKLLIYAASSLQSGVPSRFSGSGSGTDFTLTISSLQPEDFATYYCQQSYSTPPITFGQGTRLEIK
notes: common light chain; also called H4H21236D
The Kd is a measure of binding affinity in units of concentration. Usually koff stands for the rate constant with which the complex falls apart. Broadly, the kon is a measure of how fast the partners come together. Low values mean slow association, high ones fast association. As a reminder, the t½ is how long it takes for the measured level to halve. High values mean slow decline, low ones rapid decline. With B1, in assay [1], binding was put at a Kd of 106 nM, the koff is 0.00372 s⁻¹, the kon worked out at 35100 M⁻¹ s⁻¹ and the t½ came to 186 s. Moreover, in assay [2], the “100 nM mfLEPR-MMH Bound (RU)” value is 12 RU, the Kd is 83.4 nM, the koff was found to be 0.00482 s⁻¹ and the kon came to 57900 M⁻¹ s⁻¹. This molecule also displayed a t½ in assay [2] of 144 s. In addition, in assay [3], the “100 nM hLEPR-MMH Bound (RU)” value was determined as 5 RU, binding was characterised by a dissociation constant (Kd) of 726 nM, the koff amounted to 0.0131 s⁻¹ and the on-rate constant (kon) turned out to be 18000 M⁻¹ s⁻¹. In addition, the t½ in assay [3] was found to be 54 s. Further, in assay [4], the “100 nM mfLEPR-MMH Bound (RU)” value was determined as 9 RU, the Kd turned out to be 284 nM, the off-rate (koff) stood at 0.0176 s⁻¹ and the kon is 61900 M⁻¹ s⁻¹. The molecule also displayed a t½ in assay [4] of 42 s.

B2: bsAb21237D (bispecific antibody, V domains shown)
VH 1: EVQLVESGGGLVQPGGSLRLSCAASGFTFSNYGMTWVRQAPGKGLEWVSAITGGGGSTYYSNSVKGRFTISRDNSKNTVYLRMNSVRAEDTAVYYCAKYKWNFVDDWGQGTTVTVSS
VH 2: QVQLVESGGGLVKPGGSLRLSCAASGFTFSDYYMTWIRQTPGKGLDWVSYISSSGTNKYNADSVKGRFTISRDNAKNSLYLQMNSLRAEDTAVYYCVRDPPWGMDVWGQGTTVTVSS
VL: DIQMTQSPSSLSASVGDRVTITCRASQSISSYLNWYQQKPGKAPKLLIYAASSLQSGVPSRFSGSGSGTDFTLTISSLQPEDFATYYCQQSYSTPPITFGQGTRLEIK
notes: common light chain; also called H4H21237D
B2: in assay [1], the “100 nM hLEPR-MMH Bound (RU)” value was 11 RU, binding was characterised by a dissociation constant (Kd) of 78.7 nM, the koff came out at 0.00121 s⁻¹ and the on-rate (kon) stood at 15300 M⁻¹ s⁻¹. Further, in assay [2], the “100 nM mfLEPR-MMH Bound (RU)” value is 16 RU, binding was characterised by a dissociation constant (Kd) of 37.8 nM, the koff was determined as 0.00116 s⁻¹ and the kon was 30800 M⁻¹ s⁻¹. For the same molecule, in assay [3], the “100 nM hLEPR-MMH Bound (RU)” value turned out to be 15 RU, binding was characterised by a dissociation constant (Kd) of 280 nM, the koff was 0.00442 s⁻¹ and the kon worked out at 15800 M⁻¹ s⁻¹. In assay [3], this molecule showed a t½ of 156 s. Further, in assay [4], the “100 nM mfLEPR-MMH Bound (RU)” value stood at 27 RU, the Kd turned out to be 151 nM, the koff was 0.00424 s⁻¹ and the kon is 28100 M⁻¹ s⁻¹. Also, the t½ in assay [4] came out at 162 s.

B3: bsAb19139D (bispecific antibody, V domains shown)
VH 1: QVQLVESGGGVVQPGRSLRLSCTASGFTFSSYAMYWVRQAPGKGLEWVSVIYYDGSYKYYADSVKGRFTISRDNSKNTLYLQMDSLRAEDTAVYYCASYNWNYWYFDFWGRGTLVTVSS
VH 2: QVQLVESGGGVVQPGGSLRLSCAASGFTFSTYDIHWVRQAPGKGLEWVAVISFDGSNRNYGDSVKGRFTISRDNSDNTLFLEMNNLRFEDTAVYYCAKEGYGVDFQHWGQGTLVTVSS
VL: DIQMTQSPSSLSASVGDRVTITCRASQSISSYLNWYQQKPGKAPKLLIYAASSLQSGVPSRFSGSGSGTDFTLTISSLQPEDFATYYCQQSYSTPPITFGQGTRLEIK
notes: LEPR x GP130 bispecific with common light chain
Consider B3, for which the entries for the “100 nM hGP130-MMH Bound (RU)” value in assay [5] and in assay [7] were 6 RU and 3 RU, respectively. In addition, the “100 nM mfGP130-MMH Bound (RU)” value came out at 6 RU in assay [6] and 2 RU in assay [8]. In addition, the binding result in assay [7] and in assay [8] was “no binding (tested: 100 nM)” in each case.

B4: bsAb19140D (bispecific antibody, V domains shown)
VH 1: QVQLVESGGGVVQPGRSLRLSCTASGFTFSSYAMYWVRQAPGKGLEWVSVIYYDGSYKYYADSVKGRFTISRDNSKNTLYLQMDSLRAEDTAVYYCASYNWNYWYFDFWGRGTLVTVSS
VH 2: QVQLQESGPGLVKPSETLSLTCTVSGGSISNYYWTWIRQPPGKGLEWIGHISNSGTTNYNPSLKSRVTISVDTSKNQFSLKLTSVTAADTAVYYCARLPLGIAAVDTDYYYYFGMDVWGQGTTVTVSS
VL: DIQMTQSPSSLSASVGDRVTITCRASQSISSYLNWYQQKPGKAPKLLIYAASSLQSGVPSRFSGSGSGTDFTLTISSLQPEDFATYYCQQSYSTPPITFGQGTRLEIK
notes: as for B3
As to B4, in assay [5], the “100 nM hGP130-MMH Bound (RU)” value amounted to 23 RU, the Kd came to 105 nM, the koff turned out to be 0.0477 s⁻¹ and the kon was determined as 455000 M⁻¹ s⁻¹. For the same molecule, the t½ in assay [5] came to 12 s. In assay [6], the “100 nM mfGP130-MMH Bound (RU)” value came to 20 RU, the Kd was 136 nM, the koff worked out at 0.0546 s⁻¹ and the kon was found to be 402000 M⁻¹ s⁻¹. Besides, the t½ in assay [6] came out at 12 s. Further, in assay [7], the “100 nM hGP130-MMH Bound (RU)” value was found to be 19 RU, the Kd came out at 144 nM, the koff stood at 0.12 s⁻¹ and the kon is 829000 M⁻¹ s⁻¹. The molecule further displayed a t½ in assay [7] of 6 s. For the same molecule, in assay [8], the “100 nM mfGP130-MMH Bound (RU)” value turned out to be 14 RU, the Kd stood at 183 nM, the off-rate constant (koff) amounted to 0.146 s⁻¹ and the kon turned out to be 797000 M⁻¹ s⁻¹. For the same molecule, the t½ in assay [8] stood at 6 s.

B5: bsAb19141D (bispecific antibody, V domains shown)
VH 1: QVQLVESGGGVVQPGRSLRLSCTASGFTFSSYAMYWVRQAPGKGLEWVSVIYYDGSYKYYADSVKGRFTISRDNSKNTLYLQMDSLRAEDTAVYYCASYNWNYWYFDFWGRGTLVTVSS
VH 2: EVQLVESGGGVVRPGGSLRLSCTASGFTFDDYGMSWVRQAPGKGLEWVSGINWNGGRTEYADAVKGRFIISRDNAKNSLYLQMNSLRAEDTALYFCARTELRWDYWGQGTLVTVSS
VL: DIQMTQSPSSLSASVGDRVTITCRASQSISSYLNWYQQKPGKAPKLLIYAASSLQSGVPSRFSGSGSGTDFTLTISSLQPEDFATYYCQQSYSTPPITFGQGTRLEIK
notes: as for B3
As for B5, in assay [5], the “100 nM hGP130-MMH Bound (RU)” value is 15 RU, the dissociation constant Kd worked out at 219 nM, the koff turned out to be 0.0232 s⁻¹ and the kon turned out to be 106000 M⁻¹ s⁻¹. Moreover, in assay [5], the t½ amounted to 30 s. In assay [6], the “100 nM mfGP130-MMH Bound (RU)” value was found to be 15 RU, binding was characterised by a dissociation constant (Kd) of 184 nM, the off-rate (koff) came to 0.0207 s⁻¹ and the kon stood at 112000 M⁻¹ s⁻¹. For the same molecule, in assay [6], the t½ is 36 s. In assay [7], the “100 nM hGP130-MMH Bound (RU)” value amounted to 15 RU, the Kd stood at 347 nM, the koff worked out at 0.0621 s⁻¹ and the kon came out at 179000 M⁻¹ s⁻¹. In assay [7], the t½ was determined as 12 s. For the same molecule, in assay [8], the “100 nM mfGP130-MMH Bound (RU)” value came to 15 RU, the Kd was determined as 212 nM, the off-rate (koff) is 0.0513 s⁻¹ and the kon was 242000 M⁻¹ s⁻¹. For the same molecule, the t½ in assay [8] is 12 s.

B6: bsAb19147D (bispecific antibody, V domains shown)
VH 1: QVQLVESGGGVVQPGRSLRLSCTASGFTFSSYAMYWVRQAPGKGLEWVSVIYYDGSYKYYADSVKGRFTISRDNSKNTLYLQMDSLRAEDTAVYYCASYNWNYWYFDFWGRGTLVTVSS
VH 2: EVQLVESGGGLVQPGGSLRLSCTASGFTFSNYAIFWVRQAPGKGLEYVSGISNNGVTKYYADSVRDRFTISRDNSRNTVSIQMDSLRTEDMAVYYCARENWGSDDGFDIWGQGTMVTVSS
VL: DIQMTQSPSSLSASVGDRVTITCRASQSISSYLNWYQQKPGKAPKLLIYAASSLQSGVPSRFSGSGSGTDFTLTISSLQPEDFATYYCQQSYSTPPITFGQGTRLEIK
notes: as for B3
In the case of B6, the results for the “100 nM mfGP130-MMH Bound (RU)” value in assay [6] and in assay [8] were 5 RU and 3 RU, respectively. Further, the binding result in assay [8] was “no binding (tested: 100 nM)”.
